Bridge positions count the residues as written; N and C are the ends. Square brackets hold non-standard residues; d marks the D form. Ends that are not written are not given here. dDip = N[C@@H](C(=O)O)C(c1ccccc1)c1ccccc1; Phe(4-Cl) = N[C@@H](Cc1ccc(Cl)cc1)C(=O)O; Phe(4-F) = N[C@@H](Cc1ccc(F)cc1)C(=O)O; 3Pal = N[C@@H](Cc1cccnc1)C(=O)O; Tle = CC(C)(C)[C@H](N)C(=O)O; Nal = naphthylalanine
T1: U-II receptors (rat thoracic aorta tissue) (rat, UniProt P49684 1-386)
T1 sequence (looked up): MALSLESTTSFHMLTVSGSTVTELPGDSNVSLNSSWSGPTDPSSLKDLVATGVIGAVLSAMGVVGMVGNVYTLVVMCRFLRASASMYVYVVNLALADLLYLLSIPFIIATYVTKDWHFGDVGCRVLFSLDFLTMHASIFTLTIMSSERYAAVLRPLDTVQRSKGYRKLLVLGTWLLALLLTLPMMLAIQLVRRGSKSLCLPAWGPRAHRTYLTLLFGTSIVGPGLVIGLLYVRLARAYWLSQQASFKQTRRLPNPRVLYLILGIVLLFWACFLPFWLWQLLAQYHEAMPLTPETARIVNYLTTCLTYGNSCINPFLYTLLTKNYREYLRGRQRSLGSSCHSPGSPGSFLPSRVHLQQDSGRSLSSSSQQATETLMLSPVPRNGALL

B1: Cpa-c[D-Cys-Phe-Trp-Lys-Thr-Cys]-Val-NH2 (peptide)
peptide: [Phe(4-Cl)][dC]FWKTCV-NH2
modifications: disulfide 2-7; N-terminus assumed
SMILES: CC(C)[C@H](NC(=O)[C@@H]1CSSC[C@@H](NC(=O)[C@@H](N)Cc2ccc(Cl)cc2)C(=O)N[C@@H](Cc2ccccc2)C(=O)N[C@@H](Cc2c[nH]c3ccccc23)C(=O)N[C@@H](CCCCN)C(=O)N[C@@H]([C@@H](C)O)C(=O)N1)C(N)=O
B2: Cpa-D-Cys-Tyr-D-Trp-Lys-Thr-Cys-Nal-NH2 (peptide)
peptide: XXYXKTCX
modifications: Cpa (p-chlorophenylalanine) at 1; D-Cys at 2; D-Trp at 4; Nal (naphthylalanine) at 8; C-terminal amide

How the values were obtained:
[1] = target: U-II receptors (rat thoracic aorta tissue) (rat) (UniProt P49684); experiment: cell-based or functional assay
[2] = target: U-II receptors (rat thoracic aorta tissue) (rat) (UniProt P49684); experiment: method not described; presumably binding to rat aorta tissue / U-II receptors
[3] = target: T1, U-II receptors (rat thoracic aorta …); experiment: cell-based or functional assay
[4] = target: T1, U-II receptors (rat thoracic aorta …); experiment: cell-based or functional assay; remark: listed apart in the source

Row | Molecule | SRIF Antagonist IC50s (nM) against U-II Stimulation of Rat Aorta Phasic Contractions [3] [nM] | other results
1 | Cpa-c[D-Cys-Pal-D-Trp-Lys-Val-Cys]-Cpa-amide (peptide) |  | IC50 against U-II-induced phasic contractions in circular rat thoracic aorta strips [1]: 0.1 µM; Kd [2]: 0.24 µM
2 | [Phe(4-Cl)][dC][3Pal]WKTC[Phe(4-Cl)]-NH2 (disulfide 2-7 (inferred)) [Cpa-D-Cys-Pal-Trp-Lys-Thr-Cys-Cpa-NH2] | 2 | 
3 | B1 |  | IC50 against U-II-induced phasic contractions in circular rat thoracic aorta strips [4]: 0.002 µM
4 | B2 | 12 | 
5 | [Phe(4-F)][dC][3Pal][dW]KVC[Nal]-NH2 (disulfide 2-7 (inferred)) [4Fpa-D-Cys-Pal-D-Trp-Lys-Val-Cys-Nal-NH2] | 1090 | 
6 | [Phe(4-Cl)][dC][3Pal][dW]K[Tle]C[Nal]-NH2 (disulfide 2-7 (inferred)) [Cpa-D-Cys-Pal-D-Trp-Lys-Tle-Cys-Nal-NH2] | 10 | 
7 | [Phe(4-F)][dC][3Pal][dW]K[Tle]C[Nal]-NH2 (disulfide 2-7 (inferred)) [4Fpa-D-Cys-Pal-D-Trp-Lys-Tle-Cys-Nal-NH2] | 100 | 
8 | [Nal][dC]H[dW]KVC[dDip]-NH2 (disulfide 2-7 (inferred)) [Nal-D-Cys-His-D-Trp-Lys-Val-Cys-D-Dip-NH2] | 1800 | 

— US20070287665A1 (SOCIETE DE CONSEILS DE RECHERCHES ET D APPLICATIONS …, published 2007)
